Experimental data as given in publication PMC10171801.

Target: MAGI2 PDZ0-GK (mouse) (UniProt Q9WVQ1)
Assay: ITC

UniProt Q9WVQ1, sequence (Q9WVQ1 9-238): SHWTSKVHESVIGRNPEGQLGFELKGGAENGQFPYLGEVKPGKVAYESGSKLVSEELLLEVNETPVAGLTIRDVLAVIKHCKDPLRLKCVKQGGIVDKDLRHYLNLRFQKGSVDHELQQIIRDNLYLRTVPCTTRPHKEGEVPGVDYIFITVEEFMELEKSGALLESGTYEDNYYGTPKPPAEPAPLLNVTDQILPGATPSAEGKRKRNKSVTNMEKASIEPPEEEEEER

## pSAPAP1-GBR2(E-1P) (peptide)
  Kd: 70 nM

## pSAPAP1-GBR2(T+5F) (peptide)
  Kd: 70 nM
